Results: US11124779B2, “Compositions and methods for treating and preventing pancreatitis, renal injury and cancer” (Yale University, priority 2014, dated 2021)

Experiments:
HK-2 cells = test: In vitro model of cisplatin toxicity: HK-2 cell survival by the WST-1 method; type: cell-based, human; details: 20 μM cisplatin, 24 hrs; test substance 80 μg/ml
Protocol: FIG. 1B is a graph depicting the effect of renalase peptides on survival of HK-2 cells exposed to 20 μM cisplatin for 24 hrs; cell survival is depicted as % change in survival compared to that in cisplatin-treated HK-2 cells without renalase peptides; cell survival was measured by the WST-1 method; RP-A220: mutated RP-220, and RP-19 and RP-128: control peptides; peptide concentration (μg/ml) indicated in top line; n=4, *=p<0.05. […]
HK-2 cells (human proximal tubular line) obtained from ATTC (Manassas, Va., USA) were cultured in DMEM/F12 supplemented with glutamine, 10% FBS and antibiotics, and were maintained at 37° C. in 5% CO2. Cells were exposed to cisplatin (20 μM) in the presence or absence of recombinant renalase or renalase peptides for 24 hrs, and cell viability was assessed by the WST1 method (Roche Applied Science, Germany).

isolated mouse acini = test: Injury of isolated mouse pancreatic acini (MTT, LDH release, H&E histology); type: cell-based; details: WT mouse acini, renalase 25 μg/mL, cerulein
Protocol: FIGS. 9A-9E, depict the results of experiments that show recombinant exogenous renalase reduce zymogen activation and injury in vitro in mice. (FIG. 9A) Isolated WT mouse acini were pretreated for 30 minutes with recombinant renalase (25 μg/mL; 0.1 μM) and then treated with either (FIG. 9A, 9D, 9E) physiologic (0.1 nM) and supraphysiologic (100 nM) cerulein or (FIG. 9B) physiologic (1 μM) or supraphysiologic (1000 μM) carbachol for 30 minutes. Trypsin activity (FIGS. 9A-9C), MTT accumulation (FIG. 9D), and LDH release (FIG. 9E) were assayed using a fluorogenic substrate. For FIG. 9C, isolated acini from renalase ^−/^− mice were treated pretreated with recombinant renalase (25 μg/mL) and then treated with cerulein (0.1 nM or 100 nM) for 30 minutes. *p<0.05 vs. supraphysiologic cerulein or carbachol, # p<0.05 vs. WT, n=3, +/−SEM.
FIGS. 13A-13C, depict the results of experiments showing caloxin blocks the protective effects of renalase. […]
Next, it was assessed whether pretreatment with recombinant human renalase reduces injury in pancreatitis. This was first assessed in isolated groups of murine acinar cells (acini) that were exposed to supraphysiologic concentrations of cerulein and carbachol (which induces early acinar cell pancreatitis responses) in isolated WT mouse acini and acini isolated from renalase deficient mice in vitro (FIG. 9). […]

PMCA = PMCA (Homo sapiens, UniProt P23634); test: Ca2+ efflux through PMCA, time lapse confocal microscopy, HK2 cells; type: cell-based
Chain of PMCA (P23634 1-1205 isoform P23634-6): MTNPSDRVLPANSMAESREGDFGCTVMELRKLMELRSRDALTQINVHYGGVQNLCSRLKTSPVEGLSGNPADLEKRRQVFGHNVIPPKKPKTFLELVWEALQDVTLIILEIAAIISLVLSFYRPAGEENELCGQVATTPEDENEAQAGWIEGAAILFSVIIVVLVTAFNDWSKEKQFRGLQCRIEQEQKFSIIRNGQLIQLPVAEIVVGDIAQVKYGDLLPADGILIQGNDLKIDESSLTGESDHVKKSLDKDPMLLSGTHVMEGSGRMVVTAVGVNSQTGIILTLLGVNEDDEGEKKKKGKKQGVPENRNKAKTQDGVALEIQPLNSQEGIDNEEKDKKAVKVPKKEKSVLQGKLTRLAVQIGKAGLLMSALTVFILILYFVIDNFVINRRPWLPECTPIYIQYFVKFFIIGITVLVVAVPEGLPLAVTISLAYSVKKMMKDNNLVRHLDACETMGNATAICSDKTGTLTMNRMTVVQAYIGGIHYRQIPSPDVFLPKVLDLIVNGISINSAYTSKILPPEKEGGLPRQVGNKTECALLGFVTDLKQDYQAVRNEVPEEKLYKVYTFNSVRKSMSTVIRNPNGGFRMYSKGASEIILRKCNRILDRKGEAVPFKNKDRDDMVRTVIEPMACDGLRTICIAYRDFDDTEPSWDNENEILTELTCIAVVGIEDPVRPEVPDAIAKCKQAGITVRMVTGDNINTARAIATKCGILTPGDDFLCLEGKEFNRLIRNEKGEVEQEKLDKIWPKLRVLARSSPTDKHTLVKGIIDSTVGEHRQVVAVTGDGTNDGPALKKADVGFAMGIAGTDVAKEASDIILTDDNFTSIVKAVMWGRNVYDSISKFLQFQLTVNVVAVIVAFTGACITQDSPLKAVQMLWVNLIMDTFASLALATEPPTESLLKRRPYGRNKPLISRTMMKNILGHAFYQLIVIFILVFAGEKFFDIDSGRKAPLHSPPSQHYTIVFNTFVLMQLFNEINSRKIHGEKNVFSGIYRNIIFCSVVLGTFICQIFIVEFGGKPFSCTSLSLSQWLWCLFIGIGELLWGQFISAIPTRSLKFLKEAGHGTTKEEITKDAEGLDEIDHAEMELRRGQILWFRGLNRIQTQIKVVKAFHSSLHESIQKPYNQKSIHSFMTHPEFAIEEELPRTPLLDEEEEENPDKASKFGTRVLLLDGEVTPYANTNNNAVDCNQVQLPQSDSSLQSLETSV
Protocol: FIGS. 12A-12F, depict the results of experiments showing renalase increases Ca^2+ efflux through PCMA. Changes in whole cell cytosolic Ca^2+ were recorded with the Ca^2+ dye Fluo-4 (HK2 cells) or Fluo-5 (acinar cell) by time lapse confocal microscopy. FIGS. 12A, 12B, 12D, and 12E are representative plots of fluorescence over time in HK2 cells (FIGS. 12A and 12B) or mouse acinar cells (FIGS. 12D and 12E). Cells were pretreated with 30 μM cyclopiazonic acid and perfused with Ca^2+-free medium. Cells were briefly stimulated with 10 nM angiotensin IV (Ang in HK2 cells) or 100 nM cerulein (Cer in acinar cells) in the presence of 1.3 mM Ca^2+. […] For FIGS. 12C and 12F, the rate of Ca^2+ efflux was quantified from 30 cells/treatment group. *p<0.05 vs. no renalase. […]
PMCA selectively binds renalase (FIG. 6). […] Since the protective effects of renalase were first characterized in HK-2 cells (human kidney cell line) (Lee et al., 2013, J Am Soc Nephrol 24, 445-455; Wang et al., 2014, Journal of the American Society of Nephrology: JASN), its effects on Ca^2+ signals were evaluated in these cells and subsequently in mouse acinar cells (FIG. 12). […] Perfusion buffer was then switched back to Ca^2+-free medium in the presence or absence of renalase, and cytosolic Ca^2+ levels were monitored over time and the rates of Ca^2+ efflux were calculated (FIG. 12). […]

B1: recombinant renalase: recombinant full-length human renalase, secretory flavoprotein oxidase; synthesized as in Desir et al., 2012; SEQ ID NO: 8 or 9 (protein)
chain: ALLRRQTSGPLYLAVWDKAEDSGGRMTTACSPHNPQCTADLGAQYITCTPHYAKKHQRFYDELLAYGVLRPLSSPIEGMVMKEGDCNFVAPQGISSIIKHYLKESGAEVYFRHRVTQINLRDDKWEVSKQTGSPEQFDLIVLTMPVPEILQLQGDITTLISECQRQQLEAVSYSSRYALGLFYEAGTKIDVPWAGQYITSNPCIRFVSIDNKKRNIESSEIGPSLVIHTTVPFGVTYLEHSIEDVQELVFQQLENILPGLPQPIATKCQKWRHSQVTNAAANCPGQMTLHHKPFLACGGDGFTQSNFDGCITSALCVLEALKNYI
- survival of HK-2 cells exposed to cisplatin (protective effect) (HK-2 cells): protected HK-2 cells to a similar degree
- injury of acini in vitro (MTT accumulation, LDH release) (isolated mouse acini): reduce
- baseline Ca2+ levels (PMCA): did not change
- rate of Ca2+ efflux (PMCA; 10 nM angiotensin IV, Ca2+-free and Na+-free medium, cyclopiazonic acid): increased
